{"source": "patent US20140271457A1", "about": "(AbbVie / Abbott, published 2014)", "binders": {"B1": {"name": "DVD3167 (bispecific antibody, IgG1)", "VH": "EVQLVQSGAEVKKPGASVKVSCKASGYTFANYGIIWVRQAPGQGLEWMGWINTYTGKPTYAQKFQGRVTMTTDTSTSTAYMELSSLRSEDTAVYYCARKLFTTMDVTDNAMDYWGQGTTVTVSSASTKGPSVFPLAPEVQLVQSGAEVKKPGASVKVSCKASGYTFTSYWMHWVRQAPGQGLEWIGNINPKGGSNIYNEKFQGRVTMTRDTSISTAYMELSRLRSDDTAVYYCARLDYFGDSFDLWGQGTTVTVSS", "VL": "DIQMTQSPSSLSASVGDRVTITCRASQDISQYLNWYQQKPGKAPKLLIYYTSRLQSGVPSRFSGSGSGTDFTLTISSLQPEDFATYFCQQGNTWPPTFGQGTKLEIKRTVAAPDIQMTQSPSSLSASVGDRVTITCRASQGIRNYLNWYQQKPGKAPKLLIYYASNLEVGVPSRFSGSGSGTDYTLTISSLQPEDFATYYCQQDNRFPYTFGGGTKVEIKR"}, "B2": {"name": "DVD3177 (bispecific antibody, IgG1)", "VH": "B1 VH with A30N, T102N, M104V, D105A", "VL": "B1 VL with S30E, Q31N, W94Q"}, "B3": {"name": "DVD2694 (bispecific antibody, IgG1)", "VH": "EVQLVESGGGLVQPGGSLRLSCAASGFTFSNYGVTWVRQAPGKGLEWVSMIWADGSTHYASSVKGRFTISRDNSKNTLYLQMNSLRAEDTAVYYCAREWQHGPVAYWGQGTLVTVSSASTKGPEVQLVQSGAEVKKPGASVKVSCKASGYTFTKYWLGWVRQAPGQGLEWMGDIYPGYDYTHYNEKFKDRVTLTTDTSTSTAYMELRSLRSDDTAVYYCARSDGSSTYWGQGTLVTVSS", "VL": "DIQMTQSPSSLSASVGDRVTITCRASQLVSSAVAWYQQKPGKAPKLLIYWASARHTGVPSRFSGSGSGTDFTLTISSLQPEDFATYYCQQHYKTPFTFGQGTKLEIKRTVAAPDVLMTQTPLSLPVTPGEPASISCTSSQNIVHSNGNTYLEWYLQKPGQSPQLLIYKVSNRFSGVPDRFSGSGSGTDFTLKISRVEAEDVGVYYCFQVSHVPYTFGGGTKVEIKR"}, "B4": {"name": "DVD3122 (bispecific antibody, IgG1)", "VH": "EVQLVQSGAEVKKPGASVKVSCKASGYTFTTYGVSWVRQAPGQGLEWMGEIYPGNYNTYYNEKFRGRVTMTTDTSTSTAYMELRSLRSDDTAVYYCARWRTSYFSDYGYFDYWGQGTTVTVSSASTKGPSVFPLAPEVQLVQSGAEVKKPGASVKVSCKASGYTFNNYGIIWVRQAPGQGLEWMGWINTYTGKPTYAQKFQGRVTMTTDTSTSTAYMELSSLRSEDTAVYYCARKLFNTVAVTDNAMDYWGQGTTVTVSS", "VL": "DVVMTQSPLSLPVTLGQPASISCRSSQSLVHSHGNTYLHWYQQRPGQSPRLLIYTVSNRFSGVPDRFSGSGSGTDFTLKISRVEAEDVGVYYCSQSTHVPYTFGGGTKVEIKRTVAAPDIQMTQSPSSLSASVGDRVTITCRASQDIENYLNWYQQKPGKAPKLLIYYTSRLQSGVPSRFSGSGSGTDFTLTISSLQPEDFATYFCQQGNTQPPTFGQGTKLEIKR"}, "B5": {"name": "DVD2698 (bispecific antibody, IgG1)", "VH": "EVQLVQSGAEVKKPGASVKVSCKASGYTFTKYWLGWVRQAPGQGLEWMGDIYPGYDYTHYNEKFKDRVTLTTDTSTSTAYMELRSLRSDDTAVYYCARSDGSSTYWGQGTLVTVSSGGGGSGGGGSEVQLVESGGGLVQPGGSLRLSCAASGFTFSNYGVTWVRQAPGKGLEWVSMIWADGSTHYASSVKGRFTISRDNSKNTLYLQMNSLRAEDTAVYYCAREWQHGPVAYWGQGTLVTVSS", "VL": "DVLMTQTPLSLPVTPGEPASISCTSSQNIVHSNGNTYLEWYLQKPGQSPQLLIYKVSNRFSGVPDRFSGSGSGTDFTLKISRVEAEDVGVYYCFQVSHVPYTFGGGTKVEIKRGGSGGGGSGDIQMTQSPSSLSASVGDRVTITCRASQLVSSAVAWYQQKPGKAPKLLIYWASARHTGVPSRFSGSGSGTDFTLTISSLQPEDFATYYCQQHYKTPFTFGQGTKLEIKR"}, "B6": {"name": "DVD2699 (bispecific antibody, IgG1)", "VH": "EVQLVQSGAEVKKPGASVKVSCKASGYTFTKYWLGWVRQAPGQGLEWMGDIYPGYDYTHYNEKFKDRVTLTTDTSTSTAYMELRSLRSDDTAVYYCARSDGSSTYWGQGTLVTVSSASTKGPEVQLVESGGGLVQPGGSLRLSCAASGFTFSNYGVTWVRQAPGKGLEWVSMIWADGSTHYASSVKGRFTISRDNSKNTLYLQMNSLRAEDTAVYYCAREWQHGPVAYWGQGTLVTVSS", "VL": "DVLMTQTPLSLPVTPGEPASISCTSSQNIVHSNGNTYLEWYLQKPGQSPQLLIYKVSNRFSGVPDRFSGSGSGTDFTLKISRVEAEDVGVYYCFQVSHVPYTFGGGTKVEIKRTVAAPDIQMTQSPSSLSASVGDRVTITCRASQLVSSAVAWYQQKPGKAPKLLIYWASARHTGVPSRFSGSGSGTDFTLTISSLQPEDFATYYCQQHYKTPFTFGQGTKLEIKR"}, "B7": {"name": "DVD2701 (bispecific antibody, IgG1)", "VH": "B6 VH", "VL": "DVLMTQTPLSLPVTPGEPASISCTSSQNIVHSNGNTYLEWYLQKPGQSPQLLIYKVSNRFSGVPDRFSGSGSGTDFTLKISRVEAEDVGVYYCFQVSHVPYTFGGGTKVEIKRTVAAPSVFIFPPDIQMTQSPSSLSASVGDRVTITCRASQLVSSAVAWYQQKPGKAPKLLIYWASARHTGVPSRFSGSGSGTDFTLTISSLQPEDFATYYCQQHYKTPFTFGQGTKLEIKR"}, "B8": {"name": "DVD2702 (bispecific antibody, IgG1)", "VH": "EVQLVQSGAEVKKPGASVKVSCKASGYTFTKYWLGWVRQAPGQGLEWMGDIYPGYDYTHYNEKFKDRVTLTTDTSTSTAYMELRSLRSDDTAVYYCARSDGSSTYWGQGTLVTVSSASTKGPSVFPLAPEVQLVESGGGLVQPGGSLRLSCAASGFTFSNYGVTWVRQAPGKGLEWVSMIWADGSTHYASSVKGRFTISRDNSKNTLYLQMNSLRAEDTAVYYCAREWQHGPVAYWGQGTLVTVSS", "VL": "B6 VL"}, "B9": {"name": "DVD2693 (bispecific antibody, IgG1)", "VH": "EVQLVESGGGLVQPGGSLRLSCAASGFTFSNYGVTWVRQAPGKGLEWVSMIWADGSTHYASSVKGRFTISRDNSKNTLYLQMNSLRAEDTAVYYCAREWQHGPVAYWGQGTLVTVSSGGGGSGGGGSEVQLVQSGAEVKKPGASVKVSCKASGYTFTKYWLGWVRQAPGQGLEWMGDIYPGYDYTHYNEKFKDRVTLTTDTSTSTAYMELRSLRSDDTAVYYCARSDGSSTYWGQGTLVTVSS", "VL": "DIQMTQSPSSLSASVGDRVTITCRASQLVSSAVAWYQQKPGKAPKLLIYWASARHTGVPSRFSGSGSGTDFTLTISSLQPEDFATYYCQQHYKTPFTFGQGTKLEIKRGGSGGGGSGDVLMTQTPLSLPVTPGEPASISCTSSQNIVHSNGNTYLEWYLQKPGQSPQLLIYKVSNRFSGVPDRFSGSGSGTDFTLKISRVEAEDVGVYYCFQVSHVPYTFGGGTKVEIKR"}}, "target": "Recombinant Human TNF-α/TNFSF1A (human, UniProt P01375 77-233)", "sequence (P01375 77-233 limits assumed)": "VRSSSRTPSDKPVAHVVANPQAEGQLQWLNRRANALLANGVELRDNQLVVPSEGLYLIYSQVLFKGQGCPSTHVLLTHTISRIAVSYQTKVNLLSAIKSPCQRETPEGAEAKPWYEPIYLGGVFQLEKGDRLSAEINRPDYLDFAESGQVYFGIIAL", "assay": "cell-based or functional assay", "note": "Numbering of substitutions follows the chain as printed."}
{"binder": "B1", "values": [{"measurement": "N-Terminal VD huTNFα Neutralization Assay IC50", "value": 18, "unit": "pM"}]}
{"binder": "B2", "values": [{"measurement": "N-Terminal VD huTNFα Neutralization Assay IC50", "value": 22, "unit": "pM"}]}
{"binder": "B3", "values": [{"measurement": "N-Terminal VD huTNFα Neutralization Assay IC50", "value": 1, "unit": "pM"}]}
{"binder": "B4", "values": [{"measurement": "C-Terminal VD huTNFα Neutralization Assay IC50", "value": 0.018, "unit": "nM"}]}
{"binder": "B5", "values": [{"measurement": "C-Terminal VD huTNFα Neutralization Assay IC50", "value": 0.085, "unit": "nM"}]}
{"binder": "B6", "values": [{"measurement": "C-Terminal VD huTNFα Neutralization Assay IC50", "value": 0.064, "unit": "nM"}]}
{"binder": "B7", "values": [{"measurement": "C-Terminal VD huTNFα Neutralization Assay IC50", "value": 0.036, "unit": "nM"}]}
{"binder": "B8", "values": [{"measurement": "C-Terminal VD huTNFα Neutralization Assay IC50", "value": 0.106, "unit": "nM"}]}
{"binder": "B9", "values": [{"measurement": "N-Terminal VD huTNFα Neutralization Assay IC50", "value": 1, "unit": "pM"}]}
